Measured values as given in patent US20090263792A1, “ATOPIC DERMATITIS MARKER AND TECHNIQUE OF USING THE SAME” (FANCL CORPORATION, priority 2005, published 2009).

Tests used:
[1] = test system: NC/Nga mice modeling atopic dermatitis; experiment: Haptene (DNFB) treatment of mice modeling atopic dermatitis, observation of skin inflammation; type: in vivo, mouse; settings: haptene (0.1% DNFB, once a week, 4 weeks) applied; lactoferrin 1 μg/ml in drinking water; compared to haptene-treated mice not given lactoferrin
Method: (§1) Six-week-old male mice (NC/Nga mice) modeling atopic dermatitis were obtained (NC/Nga slc, Sankyo Labo Service Corporation) and raised under conventional conditions. […] In view of the above, a 0.1% DNFB solution (haptene) was applied to the skin of the mice on both ears as well as the right and left sides of the back once a week for a total of 4 weeks.
(§2) To relieve inflammation caused by atopic dermatitis, lactoferrin was dissolved in drinking water at 1 μg/ml and administered.
(§3) Three mice were tested under each of the following experimental conditions: (1) haptene (−)/lactoferrin (−), (2) haptene (−)/lactoferrin (+), (3) haptene (+)/lactoferrin (−), and (4) haptene (+)/lactoferrin (+).
When raised with haptene treatment in a conventional environment, the mice (NC/Nga mice) modeling atopic dermatitis used in this study developed a macroscopically noticeable dermatitis very similar to atopic dermatitis after 4 weeks of haptene treatment. In this study, the mice were fed with drinking water mixed with lactoferrin, a substance shown to be effective on atopic dermatitis (a protein with a molecular weight of 80,000 found in saliva and blood and bonding with Fe ions).

[2] = test system: skin tissues of NC/Nga mice modeling atopic dermatitis; experiment: Western blotting of protein expression in skin tissues of mice modeling atopic dermatitis; type: in vivo, mouse
Method: as §1, §2, §3
Skin tissues were cut out from mice treated with haptene/lactoferrin for 4 weeks and the tissue strips were cut into small pieces with a knife, after which the tissue pieces were transferred into a centrifugal tube whose tare weight had been measured beforehand, to measure the tissue weight. Different buffers were added by different amounts, such as tissue weight×0.85 mg Urea, tissue weight×0.1 μl 1.5% SDS, tissue weight×0.1 μl 8.5% Triton X-100, and tissue weight×0.05 μl 2-ME, and homogenized using a HG30 homogenizer (Hitachi, Ltd.). […] Protein content was quantified using the dot blotting method.
SDS-PAGE was performed with a Laemmli Tris-Glycin system using a Western blotting sample. […] If HRP labeled anti-mouse IgG (Amersham Bioscience, Inc.) (1:1000 dilution), HRP labeled anti-rabbit IgG (Amersham Bioscience, Inc.) (1:1000 dilution), HRP labeled anti-rat IgG (Amersham Bioscience, Inc.) (1:1000 dilution) or HRP labeled anti-goat IgG (Santa Cruz Biotechnology, Inc.) (1:1000 dilution) was used as the secondary antibody, an enhanced chemiluminescence (ECL) kit (Amersham Bioscience, Inc.) was used to implement detection by means of fluorescence color development. […]

B1: lactoferrin (protein, UniProt P02788 20-710, looked up)
Lactotransferrin: GRRRSVQWCAVSQPEATKCFQWQRNMRKVRGPPVSCIKRDSPIQCIQAIAENRADAVTLDGGFIYEAGLAPYKLRPVAAEVYGTERQPRTHYYAVAVVKKGGSFQLNELQGLKSCHTGLRRTAGWNVPIGTLRPFLNWTGPPEPIEAAVARFFSASCVPGADKGQFPNLCRLCAGTGENKCAFSSQEPYFSYSGAFKCLRDGAGDVAFIRESTVFEDLSDEAERDEYELLCPDNTRKPVDKFKDCHLARVPSHAVVARSVNGKEDAIWNLLRQAQEKFGKDKSPKFQLFGSPSGQKDLLFKDSAIGFSRVPPRIDSGLYLGSGYFTAIQNLRKSEEEVAARRARVVWCAVGEQELRKCNQWSGLSEGSVTCSSASTTEDCIALVLKGEADAMSLDGGYVYTAGKCGLVPVLAENYKSQQSSDPDPNCVDRPVEGYLAVAVVRRSDTSLTWNSVKGKKSCHTAVDRTAGWNIPMGLLFNQTGSCKFDEYFSQSCAPGSDPRSNLCALCIGDEQGENKCVPNSNERYYGYTGAFRCLAENAGDVAFVKDVTVLQNTDGNNNEAWAKDLKLADFALLCLDGKRKPVTEARSCHLAMAPNHAVVSRMDKVERLKQVLLHQQAKFGRNGSDCPDKFCLFQSETKNLLFNDNTECLARLHGKTTYEKYLGPQYVAGITNLKKCSTSPLLEACEFLRK
notes: a protein with a molecular weight of 80,000 found in saliva and blood and bonding with Fe ions
inflammation on the back (skin condition, FIG. 1) [1]: less inflammation
amount of expression of Annexin II, Enolase 1 and PARK7 (all other than FABP-4) (FIG. 5) ([2]; haptene-treated mice also given lactoferrin, to a level close to non-haptene-treated control mice): recovered
amounts of expression of Galectin-1, -4, -7 and -8 (FIG. 3) ([2]; haptene-treated mice also given lactoferrin, to levels close to non-haptene-treated control mice): recovered
Moesin, Ezrin and Radixin severed types of low molecular weight (50-kDa), increased by haptene treatment (FIG. 4) ([2]; haptene-treated mice, lactoferrin administration): did not decrease
